# Source: publication PMC5487423, “Yeast surface display identifies a family of evasins from ticks with novel polyvalent CC chemokine-binding activities” (Scientific Reports, 2017)
# T1: P467_RHIPU, purified, C-terminal StrepII-8xHis tag (Rhipicephalus pulchellus, UniProt L7M8Z8 22-127)
# T1 sequence: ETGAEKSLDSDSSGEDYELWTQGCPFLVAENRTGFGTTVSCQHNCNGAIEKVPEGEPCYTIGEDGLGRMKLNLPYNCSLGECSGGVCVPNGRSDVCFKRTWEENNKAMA
# T2: P991_AMBCA, purified, C-terminal StrepII-8xHis tag (Amblyomma cajennense, UniProt A0A023FFD0 29-136)
# T2 sequence: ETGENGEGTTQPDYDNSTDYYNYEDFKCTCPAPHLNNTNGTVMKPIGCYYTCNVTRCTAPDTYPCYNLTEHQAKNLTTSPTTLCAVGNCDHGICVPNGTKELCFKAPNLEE
# How the values were obtained:
# [1] = molecular target: T1, P467_RHIPU, purified, C-terminal …; assay: BLI; Kd and koff determination: His-tagged evasin immobilised on Ni-NTA biosensor (OctetRed), chemokine dilutions from 300 nM to 0.4 nM, 30 °C, same buffer as the screen; reference protein subtracted; 1:1 model with global fit, or steady state; each experiment once; settings: both partners purified
# [2] = molecular target: T2, P991_AMBCA, purified, C-terminal …; assay: as above; settings: both partners purified
Binder,binding result [1],dissociation half-life [2],binding result [2]
"CCL11 (ligand, source: bought: Peprotech) not shown",binds,,
"CCL1 (ligand, human, UniProt P22362 24-96, looked up, source: bought: Peprotech) KSMQVPFSRCCFSFAEQEIPLRAILCYRNTSSICSNEGLIFKLKRGKEACALDTVGWVQRHRKMLRHCPSKRK",binds,,
"CCL8 (ligand, human, UniProt P80075 24-99, looked up, source: bought: Peprotech) QPDSVSIPITCCFNVINRKIPIQRLESYTRITNIQCPKEAVIFKTKRGKEVCADPKERWVRDSMKHLDQIFQNLKP",binds,,
"CCL7 (ligand, source: bought: Peprotech) not shown",,2.4 h,
"CCL18 (ligand, human, UniProt P55774 21-89, looked up, source: bought: Peprotech) AQVGTNKELCCLVYTSWQIPQKFIVDYSETSPQCPKPGVILLTKRGRQICADPNKKWVQKYISDLKLNA",binds,,binds
"CCL3 (ligand, human, UniProt P10147 24-92, looked up, source: bought: Peprotech) SLAADTPTACCFSYTSRQIPQNFIADYFETSSQCSKPGVIFLTKRSRQVCADPSEEWVQKYVSDLELSA",binds,,
"CCL5 (ligand, human, UniProt P13501 24-91, looked up, source: bought: Peprotech) SPYSSDTTPCCFAYIARPLPRAHIKEYFYTSGKCSNPAVVFVTRKNRQVCANPEKKWVREYINSLEMS",binds,,binds
